Experimental data: US20230126400A1 (Alector, published 2023)

T1: human MS4A4A ECL1 peptide (amino acid residues 86-98) (human)
T1 construct: synthetic peptide
T1 peptide: CMASNTYGSNPIS

T2: human MS4A4A ECL2 peptide (amino acid residues 159-179), free (human)
T2 construct: synthetic peptide; also called huMS4A4A-ELC2 free-peptide
T2 peptide: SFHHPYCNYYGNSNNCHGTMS

T3: human MS4A6A ECL1 peptide (amino acid residues 68-85) (human)
T3 peptide: SASFSPNFTQVTSTLLNS

T4: human MS4A6A ECL2 peptide (amino acid residues 138-185) (human)
T4 peptide: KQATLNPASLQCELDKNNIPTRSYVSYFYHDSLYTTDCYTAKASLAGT

T5: BSA-conjugated human MS4A4A ECL2 peptide (amino acid residues 159-179) (human, conjugated to BSA (site not stated))
T5 construct: also called MS4A4A-ECL2 BSA conjugated peptide; BSA-MS4A4A-ELC2 peptide
T5 peptide: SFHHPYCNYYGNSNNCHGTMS


How the values were obtained:
[1] = target: T1, human MS4A4A ECL1 peptide (amino acid …); experiment: peptide ELISA
Experimental: (§1) Briefly, 96-well polystyrene plates were coated with 2 or 10 m/ml of synthetic free or BSA-conjugated peptides in coating buffer (0.05M carbonate buffer, pH9.6, Millipore Sigma Cat#C3041) overnight at 4° C. Coated plates were then blocked with ELISA diluent (PBS+0.5% BSA+0.05% Tween20) for 1-hour, washed 3×300 μL in PBST (PBS+0.05% Tween20, Thermo Cat#28352), and then the antibodies were added to the plate (50 μl/well). After 30 mins incubation (room temperature, with shaking), the plates were washed 3×300 μL in PBST. […] After a final set of washes (3×300 μL in PBST), 50 μL of TMB substrate (BioFx Cat#TMBW-1000-01) was added and the reaction was then quenched after 5-10 mins with 50 μL of stop solution (BioFx Cat#BSTP-1000-01). The quenched reaction wells were detected for absorbance at 650nm with a BioTek Synergy Microplate Reader using GENS 2.04 software.

[2] = target: T2, human MS4A4A ECL2 peptide (amino acid …); experiment: peptide ELISA, supernatant
human MS4A4A [3] = target: T6, human MS4A4A (human, UniProt Q96JQ5 1-239); experiment: FACS, K562 cells, supernatant
Experimental: (§2) Positive clones identified in Example 22 above were expanded and then rescreened for specificity against U937, K562, and/or 300.19 cells stably overexpressing human MS4A4A or cyno MS4A4A and parental U937, K562, and/or 300.19 cells. These experiments were performed using supernatants from hybridoma clones which had undergone further expansion after initial selection. Briefly, stably transfected cells were labeled with LIVE/DEAD Fixable Aqua Dead Cell Stain Kit (ThermoFisher Scientific Cat#L34957) on ice for 30 minutes. […] 2×10⁵ cells were aliquoted per well in 96-well U-bottom plates and incubated with 50 μl of culture supernatant on ice for 30 minutes. […] Following this secondary incubation, the cells were again washed twice with ice-cold FACS buffer and resuspended in a final volume of 200 μl of FACS buffer. Analysis was performed on a FACS Canto system (BD Biosciences), with gates drawn to exclude dead (Aqua-positive) cells.
(§3) The APC ratio was calculated for each antibody as follows. […] For cell lines overexpressing human MS4A4A (h4A) or cyno MS4A4A (cy4A), the ration was calculated by comparing the binding measured to the binding observed on the corresponding parental cell lines.

cynomolgus (cyno) MS4A4A [4] = target: T7, cynomolgus (cyno) MS4A4A (cynomolgus); experiment: FACS, 300.19 cells, supernatant
T7 construct: also called cy4A; Cyno 4A
Experimental: as §2, §3

human MS4A4A [5] = target: T6, human MS4A4A; experiment: FACS, U937 cells overexpressing human MS4A4A, 5 ug/ml
Experimental: (§4) Purified huIgG1 chimeric anti-MS4A4A antibodies were screened for their ability to differentially bind MS4A4A on U937 cells stably overexpressing human MS4A4A, U937 cells with human MS4A4A knocked out, and parental U937 cells. Differential binding to MS4A4A expressed on these cells was assessed by FACS analysis using 5 μg/ml of purified anti-MS4A4A chimeric antibodies, as described above.

human MS4A4A [6] = target: T6, human MS4A4A; experiment: FACS, parental U937 cells (endogenous human MS4A4A, not overexpressed), 5 ug/ml
Experimental: as §4

[7] = target: T3, human MS4A6A ECL1 peptide (amino acid …); experiment: array SPR
Experimental: (§5) Binding kinetic characterization of the anti-MS4A4A antibodies to MS4A4A ECL1 and ECL2 and to MS4A6A ECL1 and ECL2 peptides was performed by Carterra (South San Francisco, Calif.) using a proprietary array Surface Plasmon Resonance (SPR) instrument (MX-96) as follows. Antibodies were captured onto a CMD500D chip (Xantec # SPMX CMD500D) using the Continous Flow Microspotter (CFM). First, the chip was activated with 100 mM MES pH 5.5, 100 μL EDC (133 mM final), 100 μL of S-NHS (33.3 mM final), for 7 minutes. […] Anti-MS4A4A hydridoma supernatant or purified anti-MS4A4A antibodies were diluted in HBS-EP+ buffer (Teknova Cat # H8022) and then printed as duplicates with a 20 minute and a 5-minute print from the same sample solution.
(§6) These were then injected on the chip for five minutes, followed by a seven-minute dissociation period at 8 uL per second in a non-regenerative kinetic series. Duplicate measurements for each anti-MS4A4A antibody were taken to ensure reproducibility. Association rates (Kon) and dissociation rates (Koff) were calculated using a single one-to-one Langmuir binding model. The equilibrium dissociation constant (KD) was calculated as the ration of Koff/Kon.

[8] = target: T4, human MS4A6A ECL2 peptide (amino acid …); experiment: array SPR
Experimental: as §5, §6

[9] = target: T5, BSA-conjugated human MS4A4A ECL2 …; experiment: ELISA, supernatant
Experimental: as §1, with “1-10 μg/ml” for “2 or 10 m/ml”, “C3041)” for “Cat#C3041)”, “[…]).” for “μl/well).”, “TMBW-1000-01)” for “Cat#TMBW-1000-01)”, “BSTP-1000-01).” for “Cat#BSTP-1000-01).”, “650 nm” for “650nm”

human MS4A4A [10] = target: T6, human MS4A4A; experiment: FACS, HEK293, supernatant
Experimental: (§7) Positive clones identified above were expanded and then rescreened for specificity against HEK293 cells overexpressing human MS4A4A or cyno MS4A4A and parental HEK293 cells. These experiments were performed using supernatants from hybridoma clones which had undergone further expansion after initial selection. Briefly, previously prepared, cryopreserved transiently-transfected cells were labeled with LIVE/DEAD Fixable Aqua Dead Cell Stain Kit (ThermoFisher Scientific L34957) on ice for 30 minutes. After a wash with PBS, 2×10⁵ cells were aliquoted per well in 96-well U-bottom plates and incubated with 50 μl of culture supernatant on ice for 30 minutes. […] Following this secondary incubation, the cells were again washed twice with ice-cold FACS buffer and resuspended in a final volume of 200 μl of FACS buffer. Analysis was performed on a FACS Canto system (BD Biosciences), with sort gates drawn to exclude dead (Aqua-positive) cells. Positive clones (fold change of 1.8 or greater) were carried forward for further testing.

cynomolgus (cyno) MS4A4A [11] = target: T7, cynomolgus (cyno) MS4A4A; experiment: FACS, HEK293, supernatant
Experimental: as §7

[12] = target: T1, human MS4A4A ECL1 peptide (amino acid …); experiment: ELISA, hybridoma supernatant
Experimental: as §1, with “1-10 μg/ml” for “2 or 10 m/ml”, “C3041)” for “Cat#C3041)”, “[…]).” for “μl/well).”, “TMBW-1000-01)” for “Cat#TMBW-1000-01)”, “BSTP-1000-01).” for “Cat#BSTP-1000-01).”, “650 nm” for “650nm”

Row | binding result [1] | binding result [2] | fold increase in MFI (human MS4A4A [3]) [fold] | fold increase in MFI (cynomolgus (cyno) MS4A4A [4]) [fold] | Binder | further results
1 | no binding | no binding | > 2 | > 2 | anti-MS4A4A antibody 4A-209 (murine) (antibody, V domains shown, murine hybridoma antibody) VH: EVKLLESGGGLVQPGGSLKLSCAASGFDFSRYWMSWVRQAPGKGLEWIGEIKSDSSTINYTPSLKDKFIISRDNAKNTLYLQMSKVRSEDTALYYCARRGFYDYDAWFAYWGQGTLVTVSS VL: QIVLTQSPTLMSASPGEKVTMTCSASSSVTYMYWYQQKPRSSPKPWIYLTSNRASGVPTRFSGSGSGTSHSLTISYMEAEDAATYYCQQWSSNPPTFGAGTKLELR | 
2 | no binding | no binding | > 2 | > 2 | anti-MS4A4A antibody 4A-201 (murine) (antibody, V domains shown, murine hybridoma antibody) VH: QVQLRESGPGLVAPSQSLSITCTVSGFSLSSFGVTWVRQPPGKGLEWLGIIWGDGSTNYHSALISRLSISKDNSKSQVFLKLNRLQTDDTATYYCAKRDYDGREDVMGYWGQGTSVTVSS VL: DIVMTQSQKFMSTSVGDRVSITCKATQNVRTAVAWYQQKPGQSPKPLIYLASNRHTGVPDRFTGSGSGTDFTLTITNVQSEDLADYFCLQHWSYPLTFGAGTKLEMK | 
3 |  |  |  |  | anti-MS4A4A antibody 4A-201, huIgG1 chimera (antibody, V domains shown) VH: QVQLRESGPGLVAPSQSLSITCTVSGFSLSSFGVTWVRQPPGKGLEWLGIIWGDGSTNYHSALISRLSISKDNSKSQVFLKLNRLQTDDTATYYCAKRDYDGREDVMGYWGQGTSVTVSS VL: DIVMTQSQKFMSTSVGDRVSITCKATQNVRTAVAWYQQKPGQSPKPLIYLASNRHTGVPDRFTGSGSGTDFTLTITNVQSEDLADYFCLQHWSYPLTFGAGTKLEMK | ratio of MFI over secondary antibody alone (human MS4A4A [5]): 8.9 ratio; ratio of MFI over secondary antibody alone (human MS4A4A [6]): 1.1 ratio
4 | no binding | no binding | > 2 | > 2 | anti-MS4A4A antibody 4A-225 (antibody, V domains shown, murine hybridoma antibody) VH: QVQLKESGPGLVAPSQSLSITCTVSGFSLTSFGVNWFRQPPGKGLEWLGIIWGDGSTNFHSALMSRLSISKDNSKSQVFLKLNRLQTDDTATYYCAKRDYDGRDDVMGYWGQGTSVTVSS VL: DIVMTQSQKIMSTSVGDRVSITCKASQTVRTAVAWYQQKPGQSPKALIYLASNRHTGVPDRFTGSGSGTDFTLTISNVQSEDLADYFCLQHWSYPLTFGAGTKLEMK | 
5 |  |  |  |  | anti-MS4A4A antibody 4A-205, huIgG1 chimera (antibody, V domains shown) VH: EVQLVESGGDLVKPGGSLKLSCAASGFTFSHYGMSWVRQTPDKRLDWVATIGRDGIHTDYRDSVKGRFTISRDNAKNTLYLQMGSLKSEDSAIFYCARHLYYGLYYSMDYWGQGTSVTVSS VL: ENVLTQSPAIMSASPGEKVTMTCSASSSVSFMYWYQQKSSTSPKLWIYDTSKLASGVPGRFSGSGSGNSYSLTISSMEAEDVATYYCFQGSGYPLTFGSGTKLEIK | ratio of MFI over secondary antibody alone (human MS4A4A [5]): 25.3 ratio; ratio of MFI over secondary antibody alone (human MS4A4A [6]): 1 ratio
6 | no binding | no binding |  |  | anti-MS4A4A antibody 4A-210 (murine) (antibody, V domains shown, murine hybridoma antibody) VH: DVKLVESGGGLVKPGGSLKLSCAASGFTFGTYTMSWVRQTPEKRLEWVATISSGGSYTFYPDSVKGRFTISRDNAKNTLYLQMSSLKSEDTAMYYCTRDNTTGDRGWYFDVWGAGTTVTVSS VL: DIVLTQSPVSLAVSLGQRATISCQASESVSFAGKSLMHWFQQKPGQPPKLLIYRASNLESGVPARFSGSGSESDFTLTIDPVEEDDATMYYCMQSMEDPRTFGGGTKLEIK | 
7 | no binding | no binding |  |  | anti-MS4A4A antibody 4A-203 (murine) (antibody, V domains shown, murine hybridoma antibody) VH: DVKLVESGGGLVKLGGSLKLSCAASGFTFSSFYMSWVRQTPEKRLELVAAINSNGGSTYYPDTVKGRFTISRDNAKNTLYLQMSSLKSEDTALYYCARQNYYGSSSYWYFDVWGAGTTVTVSS VL: EIVLTQSPALMAASPGEKVTITCSVSSSISSSNLHWYRQKSETSPKPWIYGTSNLASGVPVRFSGSGSGTSYSLTISSMEAEDAATYYCQQWSRYPLTFGAGTKLELK | 
8 |  |  | > 2 | > 2 | anti-MS4A4A antibody 4A-207 (murine) (antibody, V domains shown, murine hybridoma antibody) VH: EVNLEESGGGLVQPGGSMKLSCVASGFTFNNYWMNWVRQSPEKGLEWVAEIRLKSNNYATHYAESVKGRFTISRDDSKSSVYLQMNNLRPEDTAIYYCTTDPPMDYSGQGTPVTVSS VL: QIVLTQSPAFMSASPGEKVTITCSASSSVSYMHWFQQKPGTSPKLWIYSTSNLVSGVPDRFSGSGSGTSYSLTISRMEAEYAATYYCHQRTSYPWTFGGGTKLEIK | 
9 |  |  |  |  | anti-MS4A4A antibody 4A-2 (antibody, V domains shown, murine hybridoma antibody) VH: QIQLVQSGPELKKPGETVKISCKASGYTFVDYEMNWVKQAPGKGLEWLGWINTYTGEPTYADDFQGRFAFSLVTSVSTAYLQINNLKHEDMATYLCTRNYYYGNGDVMDYWGQGTSVTVSS VL: QIVLTQSPAIMSASPGEKVTITCSASSSVSYIHWFQQKPGTSPKLWIYSTSNLASGVPARFSGSGSGTSYSLTISRMEAEDAATYYCQQRTGFPLTFGGGTQLEIK | binding result [7]: no binding (tested: 2000 nM); binding result [8]: no binding (tested: 2000 nM); binding result [9]: binds; Human 4A:parental cell ratio (human MS4A4A [10]): 20.2 ratio; Cyno 4A:parental cell ratio (cynomolgus (cyno) MS4A4A [11]): 9.63 ratio; binding result [12]: no binding
